Reference: US20200317768A1 (published 2020)

T1: cynomolgus monkey FcγRIIIaS extracellular domain, His-tagged (cynomolgus monkey, UniProt Q8SPW2 21-206 at identity 1.00))
T1 construct: also called cyno FcγRIIIaS; cynoFcγRIIIaS; not shown: C-terminal His-tag
T1 chain: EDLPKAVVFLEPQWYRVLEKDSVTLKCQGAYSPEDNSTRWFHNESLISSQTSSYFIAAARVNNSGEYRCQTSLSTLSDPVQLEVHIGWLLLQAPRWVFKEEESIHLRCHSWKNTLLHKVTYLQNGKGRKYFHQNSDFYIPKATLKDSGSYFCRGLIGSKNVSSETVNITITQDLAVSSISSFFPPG

T2: cynomolgus monkey FcγRIIa3 extracellular domain, His-tagged (cynomolgus monkey)
T2 construct: also called cyno FcγRIIa3; cynoFcgRIIa3; not shown: C-terminal His-tag
T2 chain: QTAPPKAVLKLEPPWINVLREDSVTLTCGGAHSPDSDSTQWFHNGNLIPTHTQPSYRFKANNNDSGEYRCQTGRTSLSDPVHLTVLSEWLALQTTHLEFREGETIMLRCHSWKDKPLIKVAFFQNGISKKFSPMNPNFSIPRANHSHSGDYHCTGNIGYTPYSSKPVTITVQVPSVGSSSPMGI

T3: human FcγRIIaH extracellular domain, His-tagged (human, UniProt P12318 34-217)
T3 construct: also called human FcγRIIa (type H); FcgRIIaH; not shown: C-terminal His-tag
T3 sequence: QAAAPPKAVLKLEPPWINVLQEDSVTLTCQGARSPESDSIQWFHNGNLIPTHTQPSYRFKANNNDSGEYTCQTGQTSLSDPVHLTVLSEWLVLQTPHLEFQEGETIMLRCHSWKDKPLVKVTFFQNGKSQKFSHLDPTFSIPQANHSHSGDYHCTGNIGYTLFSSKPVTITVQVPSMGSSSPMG

T4: human FcγRIIaR extracellular domain, His-tagged (human, UniProt P12318 34-217)
T4 construct: also called human FcγRIIa (type R); FcgRIIaR; not shown: C-terminal His-tag
T4 chain: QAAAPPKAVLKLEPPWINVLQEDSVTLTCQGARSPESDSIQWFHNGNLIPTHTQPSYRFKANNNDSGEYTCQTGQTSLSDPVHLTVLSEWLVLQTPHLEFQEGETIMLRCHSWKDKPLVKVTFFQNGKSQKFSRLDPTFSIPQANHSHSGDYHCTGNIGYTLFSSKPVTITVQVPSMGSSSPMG

T5: cynomolgus monkey FcγRIIa2 extracellular domain, His-tagged (cynomolgus monkey)
T5 construct: also called cyno FcγRIIa2; cynoFcgRIIa2; not shown: C-terminal His-tag
T5 chain: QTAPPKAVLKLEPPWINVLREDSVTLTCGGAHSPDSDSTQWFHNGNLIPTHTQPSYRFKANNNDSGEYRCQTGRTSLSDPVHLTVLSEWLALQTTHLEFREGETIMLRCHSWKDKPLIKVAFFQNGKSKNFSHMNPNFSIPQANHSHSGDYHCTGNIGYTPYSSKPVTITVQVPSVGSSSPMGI

T6: cynomolgus monkey FcγRIIb extracellular domain, His-tagged (cynomolgus monkey)
T6 construct: also called cyno FcγRIIb; cynoFcγRIIb; not shown: C-terminal His-tag
T6 chain: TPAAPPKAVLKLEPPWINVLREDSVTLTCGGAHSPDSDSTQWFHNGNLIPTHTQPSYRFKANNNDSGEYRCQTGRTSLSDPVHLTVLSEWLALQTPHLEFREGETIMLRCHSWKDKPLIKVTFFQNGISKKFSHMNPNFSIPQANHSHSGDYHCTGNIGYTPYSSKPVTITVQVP

T7: human FcγRIIb extracellular domain, His-tagged (human, UniProt P31994 43-217)
T7 construct: also called FcgRIIb (human); not shown: C-terminal His-tag
T7 sequence: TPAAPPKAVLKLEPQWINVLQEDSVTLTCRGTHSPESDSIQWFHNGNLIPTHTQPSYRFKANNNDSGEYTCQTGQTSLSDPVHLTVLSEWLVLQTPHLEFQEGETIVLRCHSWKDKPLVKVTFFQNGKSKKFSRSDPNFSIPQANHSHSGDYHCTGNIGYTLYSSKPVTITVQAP


Assays:
Test in all cases: SPR (BIACORE); KD of SG1 divided by KD of variant;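 also: relative to parent M103205H795-SG1 carrying the SG1 human heavy chain constant region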
[1] = target: T1, cynomolgus monkey FcγRIIIaS …
[2] = target: T2, cynomolgus monkey FcγRIIa3 …
[3] = target: T3, human FcγRIIaH extracellular domain, …
[4] = target: T4, human FcγRIIaR extracellular domain, …
[5] = target: T5, cynomolgus monkey FcγRIIa2 …
[6] = target: T6, cynomolgus monkey FcγRIIb extracellular …
[7] = target: T7, human FcγRIIb extracellular domain, …

KD fold (SG1 = 1) [1] | KD fold (SG1 = 1) [2] | KD fold (SG1 = 1) [3] | KD fold (SG1 = 1) [4] | KD fold (SG1 = 1) [5] | KD fold (SG1 = 1) [6] | KD fold (SG1 = 1) [7] | Binder
0.2 fold | 7.4 fold | 7.7 fold | 3.2 fold | 3.1 fold | 8.7 fold | 4.2 fold | M103205H795-MY475/M103202L889-SK1 (antibody, human IgG1, kappa, copies: 2 + 2) heavy: QVTLKESGPVLVKPTETLTLTCTVSGIDLSHDDISWVRQAPGKGLEWVGIISYAGSTYYASWAKGRLTISKDTSKNQVVLTMTNMDPVDTATYYCARGVPAYSHGGDLWGQGTLVTVSSASTKGPSVFPLAPSSKSTSGGTAALGCLVKDYFPEPVTVSWNSGALTSGVHTFPAVLQSSGLYSLSSVVTVPSSSLGTQTYICNVNHKPSNTKVDKKVEPKSCDKTHTCPPCPWPELLTGPSVFLFPPKPKDTLMISRTPEVTCVVVDVSDEDPEVKFNWYVDGVEVHNAKTKPREEQYNSTYRVVSVLTVLHQDWLNGKEYKCKVSNKALPKPIEKTISKAKGQPREPQVYTLPPSREEMTKNQVSLTCLVKGFYPSDIAVEWESNGQPENNYKTTPPVLDSDGSFFLYSKLTVDKSRWQQGNVFSCSVMHEALHNHYTQKSLSLSP light: DIVMTQSPATLSLSPGERATLSCTSSQSVYHANWLSWFQQKPGQPPKLLIYWASTLAYGVPSRFSGSGSGTDFTLTISSLQPEDAATYYCAGGYGGGRYAFGQGTKVEIKRTVAAPSVFIFPPSDEQLKSGTASVVCLLNNFYPREAKVQWKVDNALQSGNSQESVTEQDSKDSTYSLSSTLTLSKADYEKHKVYACEVTHQGLSSPVTKSFNRGEC
0.2 fold | 6.5 fold | 4.9 fold | 4.4 fold | 3.9 fold | 4.6 fold | 3.8 fold | M103205H795-MY476/M103202L889-SK1 (antibody, human IgG1, kappa, copies: 2 + 2) heavy: QVTLKESGPVLVKPTETLTLTCTVSGIDLSHDDISWVRQAPGKGLEWVGIISYAGSTYYASWAKGRLTISKDTSKNQVVLTMTNMDPVDTATYYCARGVPAYSHGGDLWGQGTLVTVSSASTKGPSVFPLAPSSKSTSGGTAALGCLVKDYFPEPVTVSWNSGALTSGVHTFPAVLQSSGLYSLSSVVTVPSSSLGTQTYICNVNHKPSNTKVDKKVEPKSCDKTHTCPPCPYPELLTGPSVFLFPPKPKDTLMISRTPEVTCVVVDVSDEDPEVKFNWYVDGVEVHNAKTKPREEQYNSTYRVVSVLTVLHQDWLNGKEYKCKVSNKALPKPIEKTISKAKGQPREPQVYTLPPSREEMTKNQVSLTCLVKGFYPSDIAVEWESNGQPENNYKTTPPVLDSDGSFFLYSKLTVDKSRWQQGNVFSCSVMHEALHNHYTQKSLSLSP light: DIVMTQSPATLSLSPGERATLSCTSSQSVYHANWLSWFQQKPGQPPKLLIYWASTLAYGVPSRFSGSGSGTDFTLTISSLQPEDAATYYCAGGYGGGRYAFGQGTKVEIKRTVAAPSVFIFPPSDEQLKSGTASVVCLLNNFYPREAKVQWKVDNALQSGNSQESVTEQDSKDSTYSLSSTLTLSKADYEKHKVYACEVTHQGLSSPVTKSFNRGEC
